{
  "source": "paper PMC6368608",
  "about": "(Nature Communications, 2019)",
  "binders": {"B1": {"name": "CH103 UCA (antibody, V domains shown)", "VH": "QVQLQESGPGLVKPSETLSLTCTVSGGSISSYYWSWIRQPPGKGLEWIGYIYYSGSTNYNPSLKSRVTISVDTSKNQFSLKLSSVTAADTAVYYCASLPRGQLVNAYFDYWGQGTLVTVSS", "VL": "not shown", "notes": "also called unmutated common ancestor of the CH103 lineage"}, "B2": {"name": "CH103 UCA-P14S (antibody, V domains shown)", "VH": "B1 VH with P14S", "VL": "not shown"}, "B3": {"name": "CH103 UCA-S30G/S31G (antibody, V domains shown)", "VH": "B1 VH with S30G, S31G", "VL": "not shown"}, "B4": {"name": "UCA-S30G/S31G (antibody, V domains shown)", "VH": "B1 VH with S30G, S31G", "VL": "not shown"}, "B5": {"name": "CH103 UCA-S30G (antibody, V domains shown)", "VH": "B1 VH with S30G", "VL": "not shown"}, "B6": {"name": "UCA-P14S (antibody, V domains shown)", "VH": "B1 VH with P14S", "VL": "not shown"}, "B7": {"name": "CH103 UCA (antibody, V domains shown)", "VH": "B1 VH", "VL": "not shown", "notes": "also called unmutated common ancestor of the CH103 lineage; wild-type UCA"}, "B8": {"name": "UCA-S30G (antibody, V domains shown)", "VH": "B1 VH with S30G", "VL": "not shown"}, "B9": {"name": "CH103 lineage intermediate I3 (antibody, V domains shown)", "VH": "QVQLQESGPGLVKSSETLSLTCTVSGGSMGGYYWSWLRQSPVKGLEWIGYIFHTGHTNYNPSLESRVTVSVDTSENQFSLRLRSVTAADTAVYYCASLPRGQLVNAFFDNWGQGTLVTVAS", "VL": "not shown"}, "B10": {"name": "I3 (CH103 lineage intermediate) (antibody, V domains shown)", "VH": "B9 VH", "VL": "not shown"}, "B11": {"name": "CH103-S14P (antibody, V domains shown)", "V domain 1": "QVQLQESGPGVVKPSETLSLTCTVSGGSMGGTYWSWLRLSPGKGLEWIGYIFHTGETNYSPSLKGRVSISVDTSEDQFSLRLRSVTAADTAVYFCASLPRGQLVNAYFRNWGRGSLVSVTA", "V domain 2": "YELTQPPSVSVSPGQTATITCSGASTNVCWYQVKPGQSPEVVIFENYKRPSGIPDRFSGSKSGSTATLTIRGTQAIDEADYYCQVWDSFSTFVFGSGTQVTVL"}, "B12": {"name": "CH103-S14P/G30S (antibody, V domains shown)", "V domain 1": "B11 V domain 1 with G30S", "V domain 2": "B11 V domain 2"}},
  "conditions_in_all_cases": "both partners purified",
  "key": {"C.CH505TF gp120 [1]": {"biological_target": "T1, C.CH505TF gp120 (HIV-1 clade C, CH505 transmitted/founder, UniProt M4M0W3, strain)", "assay": "SPR"}, "C.CH505TF gp120 [2]": {"biological_target": "T2, C.CH505TF gp120 (HIV-1 clade C, CH505 transmitted/founder, UniProt M4M0W3, strain)", "assay": "SPR; BIAcore T200; […]) 5 min at 50 µL/min, 10 min dissociation; […]; global 1:1 Langmuir fit; […]"}, "C.CH505TF gp120 [3]": {"biological_target": "T2, C.CH505TF gp120", "assay": "SPR; BIAcore T200; […]) 5 min at 50 µL/min, 10 min dissociation; […]; global 1:1 Langmuir fit; […]", "remark": "listed apart in the source"}, "C.CH505TF gp120 [4]": {"biological_target": "T1, C.CH505TF gp120", "assay": "SPR", "remark": "listed apart in the source"}},
  "note": "Positions count from the first letter of the chain named. Numbers in names are those of the source.",
  "data": [
    {"binder": "B1", "values": [
      {"measurement": "kon", "setting": "C.CH505TF gp120 [1]", "value": 23500, "unit": "M⁻¹ s⁻¹"}
    ]},
    {"binder": "B2", "values": [
      {"measurement": "koff", "setting": "C.CH505TF gp120 [1]", "value": 0.0112, "unit": "s⁻¹"},
      {"measurement": "kon", "setting": "C.CH505TF gp120 [1]", "value": 30000, "unit": "M⁻¹ s⁻¹"}
    ]},
    {"binder": "B3", "values": [
      {"measurement": "koff", "setting": "C.CH505TF gp120 [1]", "value": 0.011, "unit": "s⁻¹"},
      {"measurement": "kon", "setting": "C.CH505TF gp120 [1]", "value": 25200, "unit": "M⁻¹ s⁻¹"}
    ]},
    {"binder": "B4", "values": [
      {"measurement": "Kd", "setting": "C.CH505TF gp120 [2]", "value": 440, "unit": "nM"}
    ]},
    {"binder": "B5", "values": [
      {"measurement": "koff", "setting": "C.CH505TF gp120 [1]", "value": 0.0117, "unit": "s⁻¹"},
      {"measurement": "kon", "setting": "C.CH505TF gp120 [1]", "value": 29600, "unit": "M⁻¹ s⁻¹"}
    ]},
    {"binder": "B6", "values": [
      {"measurement": "Kd", "setting": "C.CH505TF gp120 [2]", "value": 370, "unit": "nM"}
    ]},
    {"binder": "B7", "values": [
      {"measurement": "koff", "setting": "C.CH505TF gp120 [3]", "value": 0.0101, "unit": "s⁻¹"},
      {"measurement": "kon", "setting": "C.CH505TF gp120 [3]", "value": "> 10000", "unit": "M⁻¹ s⁻¹"},
      {"measurement": "Kd", "setting": "C.CH505TF gp120 [2]", "value": 430, "unit": "nM"}
    ]},
    {"binder": "B8", "values": [
      {"measurement": "Kd", "setting": "C.CH505TF gp120 [2]", "value": 400, "unit": "nM"}
    ]},
    {"binder": "B9", "values": [
      {"measurement": "koff", "setting": "C.CH505TF gp120 [4]", "value": 0.000234, "unit": "s⁻¹"},
      {"measurement": "kon", "setting": "C.CH505TF gp120 [4]", "value": 24500, "unit": "M⁻¹ s⁻¹"}
    ]},
    {"binder": "B10", "values": [
      {"measurement": "Kd", "setting": "C.CH505TF gp120 [2]", "value": 9.53, "unit": "nM"}
    ]},
    {"binder": "B11", "values": [
      {"measurement": "Kd", "setting": "C.CH505TF gp120 [1]", "value": 50, "unit": "nM"},
      {"measurement": "koff", "setting": "C.CH505TF gp120 [1]", "value": 0.000262, "unit": "s⁻¹"},
      {"measurement": "kon", "setting": "C.CH505TF gp120 [1]", "value": 5200, "unit": "M⁻¹ s⁻¹"}
    ]},
    {"binder": "B12", "values": [
      {"measurement": "Kd", "setting": "C.CH505TF gp120 [1]", "value": 70, "unit": "nM"},
      {"measurement": "koff", "setting": "C.CH505TF gp120 [1]", "value": 0.0003, "unit": "s⁻¹"},
      {"measurement": "kon", "setting": "C.CH505TF gp120 [1]", "value": 4000, "unit": "M⁻¹ s⁻¹"}
    ]}
  ]
}
